Test results from PMC10141540.

T1: HU-B (Escherichia coli, UniProt P0ACF4 1-90)
T1 sequence: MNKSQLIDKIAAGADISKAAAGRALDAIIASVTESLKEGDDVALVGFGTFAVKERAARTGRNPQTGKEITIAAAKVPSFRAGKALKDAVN

B1: 20 bp dsDNA (dsDNA)
DNA 1: GTTCAATTGTTGTTAACTTG
DNA 2: CAAGTTAACAACAATTGAAC
B2: 4WJ DNA (structured_DNA)
DNA 1: CCCTATAACCCCTGCATTGAATTCCAGTCTGATAA
DNA 2: GTAGTCGTGATAGGTGCAGGGGTTATAGGG
DNA 3: AACAGTAGCTCTTATTCGAGCTCGCGCCCTATCACGACTA
DNA 4: TTTATCAGACTGGAATTCAAGCGCGAGCTCGAATAAGAGCTACTGT

What was measured:
HU-B [1] = molecular target: T1, HU-B; assay: condensate co-localization
HU-B [2] = molecular target: T1, HU-B; assay: EMSA
HU-A = HU-A (Escherichia coli, UniProt P0ACF0 1-90); assay: EMSA
Chain of HU-A (P0ACF0 whole entry): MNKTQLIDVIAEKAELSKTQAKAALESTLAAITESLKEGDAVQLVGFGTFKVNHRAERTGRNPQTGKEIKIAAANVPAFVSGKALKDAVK

Binder | binding result (HU-B [1]) | binding result (HU-B [2]) | binding result (HU-A)
B1 | binds | – | –
B2 | – | binds | binds
